Holding throughout (settings): both partners purified
Assay [1] has as its target T1, JNK1 kinase (residues 1–364 of human JNK1 (isoform α1) with a C-terminal 6xHis tag) (human, UniProt P45983 1-364).
T1 construct: Human JNK1 (c-Jun N-terminal kinase 1), isoform α1, residues 1-364; source: expressed and purified as described previously [34,35]
Description: NMR 15N CEST + ITC; on-rate worked out from the off-rate of CEST (5 °C) and the dissociation constant of ITC (20 °C).

The target of assay [2] is T1, JNK1 kinase (residues 1–364 of human …). Description: NMR 15N CEST; 250 μM 15N MKK4 with 10% molar ratio of JNK1; 5 °C; 50 mM HEPES pH 7.1, 150 mM NaCl, 2 mM DTT, 5% glycerol; two-site exchange model (ChemEx).
Assay [3] addresses T2, p38α kinase (residues 1–360 of human p38α) (human, UniProt Q16539 1-360).
T2 construct: source: expressed and purified as described previously [34,35]
Description: NMR 15N CEST and CPMG relaxation dispersion; 247 μM 15N MKK4 with 6% molar ratio of p38α; data acquired previously [35], analysed here with a two-site exchange model.

Assay [4] addresses T2, p38α kinase (residues 1–360 of human …). In words: NMR 15N CEST and CPMG relaxation dispersion + ITC; on-rate worked out from the off-rate of the NMR exchange analysis and the dissociation constant of ITC (ITC of ref. 35).
Assay [5] has as its target T1, JNK1 kinase (residues 1–364 of human …). In words: ITC; MKK4 (570 μM, with thioredoxin and 6xHis tag) titrated into JNK1 (42 μM); 20 °C; 50 mM HEPES pH 8.2, 150 mM NaCl, 10% glycerol, 0.5 mM TCEP; model of n identical and independent sites. In general terms: Isothermal titration calorimetry measures the heat released or taken up as one component is titrated into another.

T2 sequence (Q16539 whole entry, the tested form may be a part): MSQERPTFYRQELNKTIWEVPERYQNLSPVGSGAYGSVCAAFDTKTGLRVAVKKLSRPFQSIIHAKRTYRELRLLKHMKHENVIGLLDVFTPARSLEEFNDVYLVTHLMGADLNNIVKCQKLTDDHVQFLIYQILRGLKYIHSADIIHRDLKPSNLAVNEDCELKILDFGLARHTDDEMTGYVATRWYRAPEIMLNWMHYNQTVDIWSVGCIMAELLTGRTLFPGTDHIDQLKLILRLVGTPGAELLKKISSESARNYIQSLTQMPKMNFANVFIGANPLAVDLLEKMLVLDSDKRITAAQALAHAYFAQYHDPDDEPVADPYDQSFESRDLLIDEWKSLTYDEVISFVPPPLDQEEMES
T1 sequence (P45983 1-364): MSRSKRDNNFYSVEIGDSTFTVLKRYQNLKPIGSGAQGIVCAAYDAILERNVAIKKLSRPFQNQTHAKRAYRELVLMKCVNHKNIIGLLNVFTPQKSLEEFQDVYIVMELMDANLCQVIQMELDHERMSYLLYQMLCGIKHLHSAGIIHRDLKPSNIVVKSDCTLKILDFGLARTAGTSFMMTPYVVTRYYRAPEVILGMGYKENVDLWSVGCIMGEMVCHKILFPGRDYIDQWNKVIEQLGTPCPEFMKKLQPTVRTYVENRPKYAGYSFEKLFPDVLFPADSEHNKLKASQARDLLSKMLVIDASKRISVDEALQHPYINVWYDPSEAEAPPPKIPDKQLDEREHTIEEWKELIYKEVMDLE

B1: regulatory domain of MKK4 (residues 12–86 of human MKK4), 15N-labeled, for NMR (domain or fragment, UniProt P45985 12-86, looked up)
chain: SGGGSGSGTPGPVGSPAPGHPAVSSMQGKRKALKLNFANPPFKSTARFTLNPNPTGVQNPHIERLRTHSIESSGK
notes: Uniformly 15N-labeled for NMR; also called intrinsically disordered regulatory domain of MKK4; source: expressed and purified as described previously [34,35]
With B1, the kon in assay [1] was 6.95e+07 M⁻¹ s⁻¹. Further, in assay [2], the koff worked out at 90 s⁻¹ and the “population of the bound state (10% molar ratio of JNK1)” value was found to be 8.7 ± 0.1%. In addition, in assay [3], the koff came to 205 s⁻¹ and the “population of the bound state (6% molar ratio of p38α)” value came out at 6.2 ± 0.1%. The on-rate (kon) in assay [4] amounted to 5.01e+07 M⁻¹ s⁻¹.

B2: regulatory domain of MKK4 (residues 12–86) with N-terminal thioredoxin and 6xHis tag, unlabeled, for ITC (domain or fragment, human, UniProt P45985 12-86, looked up)
chain: B1 chain
notes: source: expressed and purified as described previously [34,35]; size-exclusion chromatography in the ITC buffer; not shown: thioredoxin, N-terminal, kept; His6, N-terminal, kept
Consider B2, for which, in assay [5], the Kd was 1300 nM and the “stoichiometry N” value came out at 1.

By kon is commonly meant the rate constant with which the complex forms. A word on the koff: it is the first-order rate constant of dissociation. As a reminder, the Kd is the constant that tells how readily two partners part at equilibrium. The low end stands for a tighter complex, the high end for a looser complex. In general, stoichiometry N refers to a count of units in the complex or per binding partner.

(Values after paper PMC8391806, “Enthalpy–Entropy Compensation in the Promiscuous Interaction of an Intrinsically Disordered Protein with Homologous Protein Partners” (Biomolecules, 2021).)
